{"source": "patent US20090136500A1", "binders": {"B1": {"name": "murine monoclonal antibody 33B8 (antibody, V domains shown)", "VH": "QIQLVQSGPELKKPGKTVTISCKASGYTFTNYGMNWVKQAPGKGLKWMGWINTYTGEPTYTDDFKGRFAFSLDTSASTAYLQISNLKNEDTATYFCAKDVSGFVFDYWGQGTTVTVSS", "VL": "DIVMTQSPSSLAVSVGEKVTMSCKSSQSLLNIIKQKNCLAWYQQKPGQSPKLLIYWASTRESGVPDRFTGSGSGTDFTLTISSVKAEDLAVYYCQQYYSYPYTFGGGTKLEIK"}}, "key": {"[1]": {"biological_target": "PAI-1 (antigen of Example 11, species not stated)", "sequence (P05121 24-402)": "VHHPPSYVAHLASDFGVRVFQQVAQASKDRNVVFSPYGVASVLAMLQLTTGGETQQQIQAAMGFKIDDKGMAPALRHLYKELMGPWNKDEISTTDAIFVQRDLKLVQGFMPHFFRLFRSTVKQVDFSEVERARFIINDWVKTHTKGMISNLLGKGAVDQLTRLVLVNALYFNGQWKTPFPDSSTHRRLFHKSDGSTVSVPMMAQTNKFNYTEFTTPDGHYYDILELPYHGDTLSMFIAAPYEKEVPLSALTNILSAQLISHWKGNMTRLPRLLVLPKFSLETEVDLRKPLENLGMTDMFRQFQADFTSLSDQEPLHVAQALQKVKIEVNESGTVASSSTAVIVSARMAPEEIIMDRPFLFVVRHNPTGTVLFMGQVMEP", "assay": "SPR-type biosensor, 25 C, global 1:1 fit (format for mP-1 not given)"}, "[2]": {"biological_target": "PAI-1 (immobilized antigen of the P-ELISA of Figure 13, species not stated)", "sequence (P05121 24-402)": "as above", "assay": "P-ELISA on immobilized biotin-labeled PAI-1 (species not stated), antibody with EDTA, A450"}}}
{"binder": "B1", "values": [{"measurement": "Kd", "setting": "[1]", "result": 8.01, "unit": "nM"}, {"measurement": "koff", "setting": "[1]", "result": 0.00314, "unit": "s⁻¹"}, {"measurement": "kon", "setting": "[1]", "result": 393000, "unit": "M⁻¹ s⁻¹"}, {"measurement": "EC50 (read off the curve)", "setting": "[2]", "result": 0.1, "unit": "µg/mL"}]}
